Assay results from paper PMC9687680 (2022).
Values belong to the compound of their own block, whether it stands above or below them.

Key:
[1] = target: T1, CD133 on Huh7 cells (human) (UniProt O43490); experiment: flow cytometry (cell binding); conditions: Huh7 cells, 37 C, Aptamer folded in PBS with 2.5 mM Mg2+ (85 C 5 min, RT, 37 C 15 min), binding to cells in PBS-based blocking buffer, 30 min, CD133-negative HEK293T cells …
T1 sequence: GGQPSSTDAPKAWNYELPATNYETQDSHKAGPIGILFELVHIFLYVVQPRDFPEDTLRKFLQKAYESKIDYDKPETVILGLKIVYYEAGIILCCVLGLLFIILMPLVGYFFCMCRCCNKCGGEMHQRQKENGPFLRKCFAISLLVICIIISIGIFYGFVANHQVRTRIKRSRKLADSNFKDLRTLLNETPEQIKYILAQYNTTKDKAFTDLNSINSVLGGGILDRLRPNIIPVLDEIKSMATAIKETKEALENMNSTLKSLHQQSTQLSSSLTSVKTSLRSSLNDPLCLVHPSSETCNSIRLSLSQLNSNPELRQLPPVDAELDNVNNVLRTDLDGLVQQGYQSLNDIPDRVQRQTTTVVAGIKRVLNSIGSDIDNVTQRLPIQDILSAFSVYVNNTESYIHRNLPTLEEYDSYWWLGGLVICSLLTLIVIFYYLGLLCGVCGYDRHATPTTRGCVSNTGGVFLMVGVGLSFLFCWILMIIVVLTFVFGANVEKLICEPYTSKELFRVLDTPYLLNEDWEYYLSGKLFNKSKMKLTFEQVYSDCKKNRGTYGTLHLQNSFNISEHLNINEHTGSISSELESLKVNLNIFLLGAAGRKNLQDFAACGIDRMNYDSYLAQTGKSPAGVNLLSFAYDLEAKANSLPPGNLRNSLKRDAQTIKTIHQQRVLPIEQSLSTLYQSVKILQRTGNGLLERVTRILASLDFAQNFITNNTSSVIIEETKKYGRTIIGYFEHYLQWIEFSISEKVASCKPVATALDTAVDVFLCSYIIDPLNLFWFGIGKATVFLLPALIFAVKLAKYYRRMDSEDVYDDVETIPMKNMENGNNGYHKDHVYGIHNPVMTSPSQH

[2] = target: T2, CD133 on PLC/PRF/5 cells (human) (UniProt O43490); experiment: flow cytometry (cell binding); conditions: PLC/PRF/5 cells, 37 C, Aptamer folded in PBS with 2.5 mM Mg2+ (85 C 5 min, RT, 37 C 15 min), binding to cells in PBS-based blocking buffer, 30 min, CD133-negative HEK293T cells …
T2 sequence: T1 sequence

[3] = system: CD133 aptamer (hybrid RNA-DNA, 10-bp DNA GC stem) (DNA:RNA, aptamer, 2'-fluoro on all pyrimidines (C and U) of the RNA part; 5-methyl-dC (printed 5'-methyl-dC) in the DNA stem) CGCGCGCCGCUCCUACAUAGCGGCGCGCG; experiment: ITC; conditions: Mg2+ 2.5 mM, PBS (Na+, K+), 25 °C, DOX 100 µM injected, aptamer 2 µM or 100 µM (supplement)
[4] = system: CD133 aptamer (hybrid RNA-DNA, 10-bp DNA GC stem) (DNA:RNA, aptamer, 2'-fluoro on all pyrimidines (C and U) of the RNA part; 5-methyl-dC (printed 5'-methyl-dC) in the DNA stem) CGCGCGCCGCUCCUACAUAGCGGCGCGCG; experiment: DOX fluorescence quenching; conditions: DOX 10 µM, aptamer 1-10 µM, 30 min; >90% quenching at aptamer:DOX 0.27
[5] = 2'-O-methyl instead of 2'-fluoro on pyrimidines (C and U)
[6] = apparent Kd, 2'-fluoro on all pyrimidines, 5-methyl-dC in stem, hexylamine cap at 3' end

Compound: CGCGCGCCGCUCCUACAUAGCGGCGCGCG [negative control CD133 aptamer (2'-OMe)]
Kd [1, 5]: > 1000 nM | Kd [2, 5]: > 1000 nM

Compound: CGCGCGCCGCUCCUACAUAGCGGCGCGCG [CD133 aptamer (RNA loop, DNA GC stem)]
Kd [1, 6]: 27 nM | Kd [2, 6]: 11 nM

KD [3]: 634 nM | binding [4]: yes
Compound: COc1cccc2c1C(=O)c1c(O)c3c(c(O)c1C2=O)C[C@@](O)(C(=O)CO)C[C@@H]3O[C@H]1C[C@H](N)[C@H](O)[C@H](C)O1
